Source: US11472855, “RNA-binding protein” (Panitch Schwarze Belisario & Nadel LLP)

Experiments:
Details in all cases: label: Alexa680 at 5' and 3'
[1] = target: T1, hPUF_MT(R5:A_13R)(R5:A_13Y)2(R6:U_13Y)3; test: EMSA; equivalent
T1 chain: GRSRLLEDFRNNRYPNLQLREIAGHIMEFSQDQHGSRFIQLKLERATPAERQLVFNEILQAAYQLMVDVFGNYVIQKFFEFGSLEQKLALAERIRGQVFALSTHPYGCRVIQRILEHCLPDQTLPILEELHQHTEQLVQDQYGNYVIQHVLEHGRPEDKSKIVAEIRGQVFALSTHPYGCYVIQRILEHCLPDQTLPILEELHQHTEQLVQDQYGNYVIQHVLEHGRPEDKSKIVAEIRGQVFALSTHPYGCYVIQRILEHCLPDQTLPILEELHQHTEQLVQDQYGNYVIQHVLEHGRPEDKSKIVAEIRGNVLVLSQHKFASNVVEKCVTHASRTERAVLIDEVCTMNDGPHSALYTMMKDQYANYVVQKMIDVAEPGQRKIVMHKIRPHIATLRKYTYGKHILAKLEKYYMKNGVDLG

[2] = target: T2, hPUF_MT(1-2-5-6-5-6-5-6-7-8) / (R5:A_13R)3(R6:U_13Y)3; test: EMSA; Example 2-5 reported comparable to WT
T2 chain: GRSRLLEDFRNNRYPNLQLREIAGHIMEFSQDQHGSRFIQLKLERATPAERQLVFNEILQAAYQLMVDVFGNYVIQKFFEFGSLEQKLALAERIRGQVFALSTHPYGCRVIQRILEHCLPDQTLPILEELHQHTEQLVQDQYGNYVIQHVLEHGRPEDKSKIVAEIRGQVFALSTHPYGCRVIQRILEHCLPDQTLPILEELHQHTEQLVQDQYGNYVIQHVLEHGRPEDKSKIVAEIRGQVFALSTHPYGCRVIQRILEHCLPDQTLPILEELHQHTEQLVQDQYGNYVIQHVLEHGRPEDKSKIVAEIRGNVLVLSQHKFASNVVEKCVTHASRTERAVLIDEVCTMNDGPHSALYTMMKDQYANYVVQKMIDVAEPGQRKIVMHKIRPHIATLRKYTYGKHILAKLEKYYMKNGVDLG

[3] = target: T3, hPUF_MT(R8_N12S,Q16R, R3→R5, R4→R6) (R8 repeat N12S,Q16R); test: EMSA; C>>G
T3 chain: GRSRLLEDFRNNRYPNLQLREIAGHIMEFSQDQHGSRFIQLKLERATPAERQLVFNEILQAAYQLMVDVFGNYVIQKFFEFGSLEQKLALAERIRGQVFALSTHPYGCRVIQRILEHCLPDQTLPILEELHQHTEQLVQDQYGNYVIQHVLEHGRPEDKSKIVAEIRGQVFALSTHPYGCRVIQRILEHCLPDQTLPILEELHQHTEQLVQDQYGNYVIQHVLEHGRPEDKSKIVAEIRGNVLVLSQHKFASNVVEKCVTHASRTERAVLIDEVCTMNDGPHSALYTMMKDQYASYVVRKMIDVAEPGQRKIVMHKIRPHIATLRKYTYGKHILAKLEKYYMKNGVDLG

hPUF_MT(R3→R5, R4→R6) = target: T4, hPUF_MT(R3→R5, R4→R6); test: EMSA; binds U exclusively at R8 position
T4 chain: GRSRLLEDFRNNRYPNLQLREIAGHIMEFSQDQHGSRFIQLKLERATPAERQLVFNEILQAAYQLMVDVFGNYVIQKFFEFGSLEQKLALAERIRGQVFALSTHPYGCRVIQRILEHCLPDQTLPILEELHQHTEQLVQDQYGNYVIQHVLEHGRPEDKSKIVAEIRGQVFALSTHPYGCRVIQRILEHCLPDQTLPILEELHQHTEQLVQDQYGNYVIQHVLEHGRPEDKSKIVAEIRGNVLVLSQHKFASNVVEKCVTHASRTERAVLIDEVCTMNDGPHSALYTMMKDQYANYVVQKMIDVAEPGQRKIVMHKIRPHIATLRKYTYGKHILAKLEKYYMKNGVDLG

Binder | binding signal [1] | binding signal [2] | binding result [3] | binding result (hPUF_MT(R3→R5, R4→R6))
CCAGAAUUGUAUAUAUAUUCG (ssRNA) [OTS-1844] | ~1 fold of 13R protein | ~10 fold of WT | – | –
CCAGAAUCGUAUAUAUUCG (ssRNA) [OTS-2035] | – | – | binds | no binding
